Data reported in ChEMBL document CHEMBL1139388, “Crystal structure of the Homo sapiens kynureninase-3-hydroxyhippuric acid inhibitor complex: insights into the molecular basis of kynureninase substrate specificity” (J Med Chem, 2009).
Substitutions are numbered along the chain they refer to. Names may count otherwise.

Experiments:
Conditions in all cases: Homo sapiens
[1] = substrate: Nc1c(O)cccc1C(=O)CC(N)C(=O)O
Description: (§1) Ratio of kcat to Km for human wild type kynureninase

[2] = substrate: Nc1ccccc1C(=O)C[C@H](N)C(=O)O
Description: as §1

[3] = substrate: Nc1c(O)cccc1C(=O)CC(N)C(=O)O; remark: listed apart in the source
Description: (§2) Activity of human wild type kynureninase

[4] = substrate: Nc1ccccc1C(=O)C[C@H](N)C(=O)O; remark: listed apart in the source
Description: as §2

[5] = substrate: Nc1c(O)cccc1C(=O)CC(N)C(=O)O; remark: listed apart in the source
Description: (§3) Ratio of kcat to Km for human kynureninase H102W/N333T mutant

[6] = substrate: Nc1ccccc1C(=O)C[C@H](N)C(=O)O; remark: listed apart in the source
Description: as §3

[7] = substrate: Nc1ccccc1C(=O)C[C@H](N)C(=O)O; remark: listed apart in the source
Description: Activity of human kynureninase H102W/N333T mutant

[8] = substrate: Nc1c(O)cccc1C(=O)CC(N)C(=O)O; remark: listed apart in the source
Description: (§4) Ratio of kcat to Km for human kynureninase S332G/N333T mutant

[9] = substrate: Nc1ccccc1C(=O)C[C@H](N)C(=O)O; remark: listed apart in the source
Description: as §4

[10] = substrate: Nc1c(O)cccc1C(=O)CC(N)C(=O)O; remark: listed apart in the source
Description: (§5) Activity of human kynureninase S332G/N333T mutant

[11] = substrate: Nc1ccccc1C(=O)C[C@H](N)C(=O)O; remark: listed apart in the source
Description: as §5

[12] = substrate: Nc1c(O)cccc1C(=O)CC(N)C(=O)O; remark: listed apart in the source
Description: (§6) Ratio of kcat to Km for human kynureninase N333T mutant

[13] = substrate: Nc1ccccc1C(=O)C[C@H](N)C(=O)O; remark: listed apart in the source
Description: as §6

[14] = substrate: Nc1c(O)cccc1C(=O)CC(N)C(=O)O; remark: listed apart in the source
Description: (§7) Activity of human kynureninase N333T mutant

[15] = substrate: Nc1ccccc1C(=O)C[C@H](N)C(=O)O; remark: listed apart in the source
Description: as §7

[16] = substrate: Nc1ccccc1C(=O)C[C@H](N)C(=O)O; remark: listed apart in the source
Description: Activity of human kynureninase H102W/S332G/N333T mutant

[17] = substrate: Nc1c(O)cccc1C(=O)CC(N)C(=O)O; remark: listed apart in the source
Description: (§8) Ratio of kcat to Km for human kynureninase H102W/S332G/N333T mutant

[18] = substrate: Nc1ccccc1C(=O)C[C@H](N)C(=O)O; remark: listed apart in the source
Description: as §8

B1: Kynureninase (Homo sapiens), Q16719 (protein)
chain: MEPSSLELPADTVQRIAAELKCHPTDERVALHLDEEDKLRHFRECFYIPKIQDLPPVDLSLVNKDENAIYFLGNSLGLQPKMVKTYLEEELDKWAKIAAYGHEVGKRPWITGDESIVGLMKDIVGANEKEIALMNALTVNLHLLMLSFFKPTPKRYKILLEAKAFPSDHYAIESQLQLHGLNIEESMRMIKPREGEETLRIEDILEVIEKEGDSIAVILFSGVHFYTGQHFNIPAITKAGQAKGCYVGFDLAHAVGNVELYLHDWGVDFACWCSYKYLNAGAGGIAGAFIHEKHAHTIKPALVGWFGHELSTRFKMDNKLQLIPGVCGFRISNPPILLVCSLHASLEIFKQATMKALRKKSVLLTGYLEYLIKHNYGKDKAATKKPVVNIITPSHVEERGCQLTITFSVPNKDVFQELEKRGVVCDKRNPNGIRVAPVPLYNSFHDVYKFTNLLTSILDSAETKN
- kcat/Km [1]: 1.23 ×10⁵ /M/s
- kcat/Km [2]: 465 M⁻¹ s⁻¹
- Km [3]: 28.3 µM
- kcat [3]: 3.5 s⁻¹
- Km [4]: 495 µM
- kcat [4]: 0.23 s⁻¹

B2: Kynureninase (Homo sapiens), Q16719 H102W,N333T (protein)
chain: B1 chain with H102W, N333T
- kcat/Km [5]: < 0.0165 M⁻¹ s⁻¹
- kcat/Km [6]: 21.4 M⁻¹ s⁻¹
- Km [7]: 327 µM
- kcat [7]: 0.007 s⁻¹

B3: Kynureninase (Homo sapiens), Q16719 S332G,N333T (protein)
chain: B1 chain with S332G, N333T
- kcat/Km [8]: 21.5 M⁻¹ s⁻¹
- kcat/Km [9]: 31.4 M⁻¹ s⁻¹
- Km [10]: > 510 µM
- kcat [10]: < 10.9 ×10⁻³ /s
- Km [11]: 540 µM
- kcat [11]: 0.017 s⁻¹

B4: Kynureninase (Homo sapiens), Q16719 N333T (protein)
chain: B1 chain with N333T
- kcat/Km [12]: 19.8 M⁻¹ s⁻¹
- kcat/Km [13]: 52.1 M⁻¹ s⁻¹
- Km [14]: > 200 µM
- kcat [14]: < 3.9 ×10⁻³ /s
- Km [15]: 499 µM
- kcat [15]: 0.026 s⁻¹

B5: Kynureninase (Homo sapiens), Q16719 H102W,S332G,N333T (protein)
chain: B1 chain with H102W, S332G, N333T
- Km [16]: 143 µM
- kcat [16]: 0.018 s⁻¹
- kcat/Km [17]: < 0.0165 M⁻¹ s⁻¹
- kcat/Km [18]: 126 M⁻¹ s⁻¹
